Data reported in paper PMC2885933 (The EMBO Journal, 2010).

Molecular target: T1, ORF57-6xHis (Kaposi's sarcoma-associated herpesvirus …, UniProt Q2HR75 1-455)
T1 sequence: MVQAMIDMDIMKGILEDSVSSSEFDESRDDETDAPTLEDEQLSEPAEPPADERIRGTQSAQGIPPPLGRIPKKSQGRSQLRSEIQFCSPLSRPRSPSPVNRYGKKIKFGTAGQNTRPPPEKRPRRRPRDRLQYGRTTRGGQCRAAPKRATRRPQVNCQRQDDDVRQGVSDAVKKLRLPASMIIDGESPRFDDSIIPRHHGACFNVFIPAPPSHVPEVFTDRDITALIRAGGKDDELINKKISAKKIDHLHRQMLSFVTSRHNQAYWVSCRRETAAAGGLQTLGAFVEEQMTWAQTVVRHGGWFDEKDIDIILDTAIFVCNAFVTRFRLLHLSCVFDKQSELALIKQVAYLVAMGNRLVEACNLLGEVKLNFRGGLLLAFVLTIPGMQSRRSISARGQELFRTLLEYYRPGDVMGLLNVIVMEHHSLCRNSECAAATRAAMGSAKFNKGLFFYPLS
Assay: pull-down

B1: GST-PYM (natural protein)
chain: not shown
- binding result: binds
